Laboratory results published in US20190219601A1 (RAMBAM MED TECH, published 2019).

Legend:
[1] = molecular target: lipidated recombinant human tissue factor (TF) (UniProt P13726); assay: cell-based or functional assay
Target sequence in this assay (P13726 33-295 limits assumed): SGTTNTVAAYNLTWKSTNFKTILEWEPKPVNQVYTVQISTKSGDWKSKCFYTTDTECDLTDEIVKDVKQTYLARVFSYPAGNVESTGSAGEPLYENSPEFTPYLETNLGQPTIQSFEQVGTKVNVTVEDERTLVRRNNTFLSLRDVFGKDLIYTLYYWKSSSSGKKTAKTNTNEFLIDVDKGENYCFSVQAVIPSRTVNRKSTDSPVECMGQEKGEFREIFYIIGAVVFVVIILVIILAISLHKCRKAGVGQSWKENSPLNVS

[2] = molecular target: lipidated recombinant human tissue factor (TF) (UniProt P13726)
Target sequence in this assay (P13726 33-295): as the sequence (P13726 33-295 limits assumed) above

[3] = molecular target: lipidated recombinant human tissue factor (TF) (human, UniProt P13726 33-295, limits assumed); assay: cell-based or functional assay

Q: For “enzymatically inactive heparanase (double mutant), mutated at Glu225 and Glu343 (from UniProt Q9Y251 36-543) (enzyme)”, which factor Xa generation with conditioned medium of HEK-293 cells (chromogenic substrate; TF, factor VIIa, factor X) [1] is on record?
A: 2 fold

Q: “full-length human heparanase (65 kDa) (from UniProt Q9Y251 36-543) (enzyme)” was tested. Which factor Xa generation with conditioned medium of HEK-293 cells (chromogenic substrate; TF, factor VIIa, factor X) [1] did it give?
A: 2 fold

Q: “recombinant active heparanase GS3 (single chain GS3 active heparanase gene construct comprising the 8 and 50 kDa heparanase subunits)” was tested. Which “factor Xa level (chromogenic substrate; purified TF, factor VIIa, factor X)” value [2] did it give?
A: Addition of heparanase induced 2 folds increase in Xa level

Q: What about the “thrombin generation (chromogenic substrate; TF, factor VIIa, factor X, prothrombin)” value [2] of the same molecule?
A: Note a 3-fold increase in coagulation activity in the presence of heparanase.

B1: recombinant active heparanase GS3 (single chain GS3 active heparanase gene construct comprising the 8 and 50 kDa heparanase subunits) (enzyme)
chain: QDVVDLDFFTQEPLHLVSPSFLSVTIDANLATDPRFLILLGSPKLRTLARGLSPAYLRFGGTKTDFLIFDPKKESTFEERSYWQSQVNQDICKYGSIPPDVEEKLRLEWPYQEQLLLREHYQKKFKNSTYSRSSVDVLYTFANCSGLDLIFGLNALLRTADLQWNSSNAQLLLDYCSSKGYNISWELGNEPNSFLKKADIFINGSQLGEDFIQLHKLLRKSTFKNAKLYGPDVGQPRRKTAKMLKSFLKAGGEVIDSVTWHHYYLNGRTATKEDFLNPDVLDIFISSVQKVFQVVESTRPGKKVWLGETSSAYGGGAPLLSDTFAAGFMWLDKLGLSARMGIEVVMRQVFFGAGNYHLVDENFDPLPDYWLSLLFKKLVGTKVLMASVQGSKRRKLRVYLHCTNTDNPRYKEGDLTLYAINLHNVTKYLRLPYPFSNKQVDKYLLRPLGPHGLLSKSVQLNGLTLKMVDDQTLPPLMEKPLRPGSSLGLPAFSYSFFVIRNAKVAACI
Q: For B1, which “factor Xa generation at reduced TF levels (absorbance at 405 nm)” value [3] is on record?
A: 3 fold

Q: What about the “factor Xa generation with conditioned medium of HEK-293 cells (chromogenic substrate; TF, factor VIIa, factor X)” value [3] of the same molecule?
A: 2 fold
